*1 amine or outer side, *2 acyl side, *3 side chain or, on linkers, in order; H or OH if unused. Where no end group is shown, it is not given here. Side-chain parts run from the residue outwards. [ ]: non-standard residue; d: D form. γGlu = O=C(O)[C@H](CCC(=O)[*:2])N[*:1]; AEEA = NCCOCCOCC(=O)O; Aib = CC(C)(N)C(=O)O
T1: human glucose-dependent insulinotropic polypeptide receptor (GIP receptor) (human, UniProt P48546 22-466)
T1 sequence (looked up): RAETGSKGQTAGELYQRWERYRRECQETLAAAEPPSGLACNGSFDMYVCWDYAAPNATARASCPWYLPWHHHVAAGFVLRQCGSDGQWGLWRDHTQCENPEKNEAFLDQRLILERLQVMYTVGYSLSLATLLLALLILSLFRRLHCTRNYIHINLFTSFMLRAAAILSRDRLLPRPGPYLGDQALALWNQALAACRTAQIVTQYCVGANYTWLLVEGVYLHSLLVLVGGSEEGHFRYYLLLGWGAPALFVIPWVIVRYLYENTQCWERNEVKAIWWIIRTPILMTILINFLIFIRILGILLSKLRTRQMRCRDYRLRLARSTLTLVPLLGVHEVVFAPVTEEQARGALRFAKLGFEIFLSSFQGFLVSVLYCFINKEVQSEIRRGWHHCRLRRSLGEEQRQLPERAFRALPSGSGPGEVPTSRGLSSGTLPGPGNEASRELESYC

B1: compound 9# (peptide)
peptide: Y[Aib]EGTFTSDYSIYLEK([AEEA-AEEA-γGlu-C20‑OH])IAAQEFVNWLIAGGPSSGAPPPS-NH2
B2: compound 15# (peptide)
peptide: Y[Aib]EGTFTSDYSIYK([AEEA-AEEA-γGlu-C20‑OH])ERIAAQEFINWLIAGGPSSGAPPPS-NH2
B3: compound 12# (peptide)
peptide: Y[Aib]EGTFTSDYSIYK([AEEA-AEEA-γGlu-C20‑OH])EKIAAQEFVNWLIAGGPSSGAPPPS-NH2
B4: compound 16# (peptide)
peptide: Y[Aib]EGTFTSDYSIYK([AEEA-AEEA-γGlu-C20‑OH])EKIAAQEFINWLLAGGPSSGAPPPS-NH2
B5: compound 14# (peptide)
peptide: Y[Aib]EGTFTSDYSIYK([AEEA-AEEA-γGlu-C20‑OH])EKIAAQEFINWLIAGGPSSGAPPPS-NH2
B6: compound 10# (peptide)
peptide: Y[Aib]EGTFTSDYSIYLEK([AEEA-AEEA-γGlu-C20‑OH])IAAQEFINWLIAGGPSSGAPPPS-NH2
B7: compound 18# (peptide)
peptide: Y[Aib]EGTFTSDYSIYK([AEEA-AEEA-γGlu-C20‑OH])EKIAAQEFVNWLLAGGPSSGAPPPS-NH2
B8: compound 13# (peptide)
peptide: Y[Aib]EGTFTSDYSIYK([AEEA-AEEA-γGlu-C20‑OH])ERIAAQEFVNWLIAGGPSSGAPPPS-NH2
B9: compound 17# (peptide)
peptide: Y[Aib]EGTFTSDYSIYK([AEEA-AEEA-γGlu-C20‑OH])ERIAAQEFVNWLLAGGPSSGAPPPS-NH2
B10: compound 7# (peptide)
peptide: Y[Aib]EGTFTSDYSIYK([AEEA-AEEA-γGlu-C20‑OH])DKIAAQEFVNWLLAGGPSSGAPPPS-NH2

Target: T2, human glucagon-like peptide-1 receptor (GLP-1R) (human, UniProt P43220 24-463)
T2 sequence (P43220 24-463): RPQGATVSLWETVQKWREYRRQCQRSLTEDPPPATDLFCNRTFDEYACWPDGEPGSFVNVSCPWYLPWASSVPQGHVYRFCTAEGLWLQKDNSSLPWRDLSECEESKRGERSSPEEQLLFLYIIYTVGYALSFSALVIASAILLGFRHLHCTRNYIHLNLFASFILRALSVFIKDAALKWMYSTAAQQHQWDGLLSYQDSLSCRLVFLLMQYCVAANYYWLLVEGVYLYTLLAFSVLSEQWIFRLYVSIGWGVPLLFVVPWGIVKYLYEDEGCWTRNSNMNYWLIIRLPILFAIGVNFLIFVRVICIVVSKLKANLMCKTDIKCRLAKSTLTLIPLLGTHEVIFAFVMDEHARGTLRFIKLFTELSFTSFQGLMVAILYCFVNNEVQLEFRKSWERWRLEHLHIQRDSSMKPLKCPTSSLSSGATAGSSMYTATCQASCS
Experiment: cell-based or functional assay

| Molecule | Human GLP-1R activity (EC50 nM); cAMP HTRF in CHO-K1/GLP-1R/CRE-luc cells |
| --- | --- |
| B1 | 0.049 nM |
| B2 | 0.015 nM |
| B3 | 0.03 nM |
| B4 | 0.029 nM |
| B5 | 0.013 nM |
| B6 | 0.065 nM |
| B7 | 0.013 nM |
| B8 | 0.017 nM |
| B9 | 0.022 nM |

Target: T1, human glucose-dependent insulinotropic …
Experiment: cell-based or functional assay

| Molecule | Human GIP receptor activity (EC50 nM); cAMP HTRF in CHO-K1 cells transfected with hGIP receptor |
| --- | --- |
| B1 | 0.04 nM |
| B2 | 0.23 nM |
| B3 | 0.17 nM |
| B4 | 0.095 nM |
| B5 | 0.13 nM |
| B6 | 0.056 nM |
| B7 | 0.06 nM |
| B8 | 0.13 nM |
| B9 | 0.11 nM |

Target: human glucagon-like peptide-1 receptor (GLP-1R) (human) (UniProt P43220)
Sequence (P43220 24-463): as above
Experiment: cell-based or functional assay

| Molecule | Human GLP-1R activity (EC50 nM); cAMP HTRF in CHO-K1/GLP-1R/CRE-luc cells |
| --- | --- |
| LY3298176 (peptide) | 0.13 nM |

Target: human glucose-dependent insulinotropic polypeptide receptor (GIP receptor) (human) (UniProt P48546)
Experiment: cell-based or functional assay

| Molecule | Human GIP receptor activity (EC50 nM); cAMP HTRF in CHO-K1 cells transfected with hGIP receptor |
| --- | --- |
| LY3298176 (peptide) | 0.056 nM |

Target: human glucagon-like peptide-1 receptor (GLP-1R) (human) (UniProt P43220)
Experiment: cell-based or functional assay
Remark: another data set of the same source

| Molecule | Human GLP-1R activity (EC50 nM); cAMP HTRF in CHO-K1/GLP-1R/CRE-luc cells |
| --- | --- |
| LY3298176 (peptide) | 0.078 nM |

Target: human glucose-dependent insulinotropic polypeptide receptor (GIP receptor) (human) (UniProt P48546)
Experiment: cell-based or functional assay
Remark: another data set of the same source

| Molecule | Human GIP receptor activity (EC50 nM); cAMP HTRF in CHO-K1 cells transfected with hGIP receptor |
| --- | --- |
| LY3298176 (peptide) | 0.031 nM |
| Natural GIP (from UniProt P09681 52-93) (ligand) | 0.006 nM |

Target: T2, human glucagon-like peptide-1 receptor …
Experiment: cell-based or functional assay
Remark: another data set of the same source

| Molecule | Human GLP-1R activity (EC50 nM); cAMP HTRF in CHO-K1/GLP-1R/CRE-luc cells |
| --- | --- |
| B10 | 0.021 nM |

Target: T1, human glucose-dependent insulinotropic …
Experiment: cell-based or functional assay
Remark: another data set of the same source

| Molecule | Human GIP receptor activity (EC50 nM); cAMP HTRF in CHO-K1 cells transfected with hGIP receptor |
| --- | --- |
| B10 | 0.11 nM |
